Results reported in publication PMC2174252 (The Journal of Cell Biology, 1999).

Biological target: mouse ZO-1 expressed in Sf21 insect cells (mouse, UniProt P39447 1-1745)
Assay: pull-down

Chain of mouse ZO-1 expressed in Sf21 insect cells (P39447 whole entry): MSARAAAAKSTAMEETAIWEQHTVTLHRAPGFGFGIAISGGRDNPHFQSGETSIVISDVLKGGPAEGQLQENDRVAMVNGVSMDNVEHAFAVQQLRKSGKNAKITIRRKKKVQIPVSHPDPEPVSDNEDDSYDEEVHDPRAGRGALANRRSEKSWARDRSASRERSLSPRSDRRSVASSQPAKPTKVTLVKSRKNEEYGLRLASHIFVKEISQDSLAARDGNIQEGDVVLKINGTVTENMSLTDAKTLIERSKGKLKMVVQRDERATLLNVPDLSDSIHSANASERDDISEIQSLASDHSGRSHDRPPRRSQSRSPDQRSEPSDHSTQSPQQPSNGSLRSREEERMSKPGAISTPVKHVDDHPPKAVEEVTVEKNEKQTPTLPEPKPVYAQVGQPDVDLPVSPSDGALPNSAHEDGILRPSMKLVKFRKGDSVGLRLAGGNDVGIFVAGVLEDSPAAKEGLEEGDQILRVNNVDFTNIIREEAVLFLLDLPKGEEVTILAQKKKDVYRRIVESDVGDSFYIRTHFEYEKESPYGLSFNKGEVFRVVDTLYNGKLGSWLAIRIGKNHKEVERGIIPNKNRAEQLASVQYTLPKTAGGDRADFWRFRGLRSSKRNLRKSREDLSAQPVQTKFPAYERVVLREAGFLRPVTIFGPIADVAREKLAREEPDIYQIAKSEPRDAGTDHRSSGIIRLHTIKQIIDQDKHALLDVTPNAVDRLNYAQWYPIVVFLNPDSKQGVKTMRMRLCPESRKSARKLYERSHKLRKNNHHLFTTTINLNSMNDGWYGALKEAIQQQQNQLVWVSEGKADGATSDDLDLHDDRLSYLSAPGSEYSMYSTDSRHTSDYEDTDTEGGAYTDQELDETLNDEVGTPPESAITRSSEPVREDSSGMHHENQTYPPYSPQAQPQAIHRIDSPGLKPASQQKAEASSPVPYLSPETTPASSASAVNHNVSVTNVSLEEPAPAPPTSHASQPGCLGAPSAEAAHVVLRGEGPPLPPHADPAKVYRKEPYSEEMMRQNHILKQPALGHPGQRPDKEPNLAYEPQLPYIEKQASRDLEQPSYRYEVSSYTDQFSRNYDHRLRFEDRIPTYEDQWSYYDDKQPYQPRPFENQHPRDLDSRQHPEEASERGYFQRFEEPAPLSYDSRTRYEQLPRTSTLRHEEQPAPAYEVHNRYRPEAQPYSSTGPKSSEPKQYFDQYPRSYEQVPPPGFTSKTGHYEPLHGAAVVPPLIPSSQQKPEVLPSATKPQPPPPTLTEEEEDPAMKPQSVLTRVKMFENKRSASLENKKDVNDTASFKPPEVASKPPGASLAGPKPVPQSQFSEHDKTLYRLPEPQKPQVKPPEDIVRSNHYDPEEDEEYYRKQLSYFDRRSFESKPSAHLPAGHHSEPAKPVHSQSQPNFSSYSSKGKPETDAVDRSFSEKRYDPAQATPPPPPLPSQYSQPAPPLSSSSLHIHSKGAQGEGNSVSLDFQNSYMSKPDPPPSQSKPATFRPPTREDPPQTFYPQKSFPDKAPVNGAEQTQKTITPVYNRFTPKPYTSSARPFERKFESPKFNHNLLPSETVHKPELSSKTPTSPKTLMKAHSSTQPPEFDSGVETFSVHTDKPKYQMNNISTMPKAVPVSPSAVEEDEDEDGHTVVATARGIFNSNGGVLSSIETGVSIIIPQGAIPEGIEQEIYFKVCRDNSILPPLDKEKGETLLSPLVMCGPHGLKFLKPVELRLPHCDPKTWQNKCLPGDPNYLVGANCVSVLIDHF

B1: GST-XC(1-378), GST fused to Xenopus laevis cingulin residues 1-378 (domain or fragment, UniProt Q9PTD7 1-378, looked up)
chain: MERDIYGDMADQHIPVGQGVQIRFIGDLKENGKPRGKRSKQDSYGVAVRVQGIDGQPFVVLNSGDKAKSSFGVQIKSQEPYLNASNTSPPNYQNYSSKPRGPSRSISSESELPENPYGSRGYRPSSSHYSSASDEEQKPRGNIRGSDGLSSLPRPLQASRREELRRSQSHSSLLEPDVEESYDYDHHYSERSSTLDTTYSQSSRDSAWSRSSQKKIDNGDYPSLGYRSATSQQSTSVSNKTKKNGLSTSSPSNQSNEDIDTKPLSSVDSLINKFDIKGQVRGRTARRSQALKDERKRSQSLDGRKNYHDTADSREIIVEKQNEVQTMREPVNASNRSFNRQTLERGDISKTRLTKEWLDQDREEPVILKQQRTVQSEF
B1 was tested, and the Kd was about 5 nM.
